What was measured:
[1] = biological target: α subunit of rat LSR (product of cDNA LSR-Rn-2097) (rat) (UniProt Q9WU74); assay: flotation of 35S-labelled in vitro translated LSR with 100 µg/ml LDL and 1 mM oleate, against no oleate
[2] = biological target: β subunit of rat LSR (product of cDNA LSR-Rn-1893) (rat) (UniProt Q9WU74); assay: as above
β subunit of rat LSR (product of cDNA LSR-Rn-1893) (rat), sequence (Q9WU74 other isoform, or with tags, fused parts or gaps limits assumed): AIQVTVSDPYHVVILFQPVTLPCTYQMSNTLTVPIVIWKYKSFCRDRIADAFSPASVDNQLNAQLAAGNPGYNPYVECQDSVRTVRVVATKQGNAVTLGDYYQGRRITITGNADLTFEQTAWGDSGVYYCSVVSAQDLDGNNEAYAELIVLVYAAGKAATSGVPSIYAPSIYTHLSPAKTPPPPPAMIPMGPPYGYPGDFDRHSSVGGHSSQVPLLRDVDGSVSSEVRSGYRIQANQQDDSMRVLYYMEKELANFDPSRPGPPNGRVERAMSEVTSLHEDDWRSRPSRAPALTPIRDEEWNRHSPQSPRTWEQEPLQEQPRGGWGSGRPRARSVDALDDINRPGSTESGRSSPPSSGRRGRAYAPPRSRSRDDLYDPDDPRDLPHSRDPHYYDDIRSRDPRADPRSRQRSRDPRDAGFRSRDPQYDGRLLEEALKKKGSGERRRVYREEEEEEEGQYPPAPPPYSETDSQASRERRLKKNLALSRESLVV

α subunit of rat LSR (product of cDNA LSR-Rn-2097) (rat), sequence (Q9WU74 36-593 limits assumed): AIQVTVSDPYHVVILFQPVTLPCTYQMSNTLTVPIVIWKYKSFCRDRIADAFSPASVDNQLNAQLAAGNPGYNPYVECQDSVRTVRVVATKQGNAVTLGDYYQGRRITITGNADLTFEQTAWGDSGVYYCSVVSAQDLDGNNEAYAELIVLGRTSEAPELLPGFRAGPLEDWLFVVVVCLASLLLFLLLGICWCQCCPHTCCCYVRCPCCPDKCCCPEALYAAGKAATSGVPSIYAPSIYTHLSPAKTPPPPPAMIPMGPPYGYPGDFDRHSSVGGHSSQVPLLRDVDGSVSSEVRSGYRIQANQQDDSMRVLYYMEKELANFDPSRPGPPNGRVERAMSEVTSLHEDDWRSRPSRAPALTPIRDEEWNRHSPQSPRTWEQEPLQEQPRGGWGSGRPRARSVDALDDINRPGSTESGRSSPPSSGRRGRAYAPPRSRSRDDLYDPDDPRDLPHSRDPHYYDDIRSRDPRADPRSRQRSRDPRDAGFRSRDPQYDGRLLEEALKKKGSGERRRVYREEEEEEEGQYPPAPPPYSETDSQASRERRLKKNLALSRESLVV

## LDL (low-density lipoprotein, 1.025<d<1.055 g/ml) isolated from plasma of volunteers, P04114 28-4563
[1]
  factor of increase of LDL binding by oleate: 5 fold
[2]
  factor of increase of LDL binding by oleate: 2 fold

Reference: patent publication US6635431
